Blank lines part the entries; values can stand above or below the molecule they belong to.
Experiments:
Experiment in all cases: BiFC
V2-Trap-80 = V2-Trap-80 (UniProt Q8VCD5); details: HEK-293 cells, co-transfection; parent: est. 72; read off a plot
p65-V2 = p65-V2 (UniProt Q04207); details: HEK-293 cells, co-transfection; parent: est. 740; read off a plot
p65-V2, Q04207 = molecular target: T1, p65-V2, Q04207; details: chain shown with the change; HEK-293 cells, co-transfection; parent: est. 740; read off a plot
T1 chain: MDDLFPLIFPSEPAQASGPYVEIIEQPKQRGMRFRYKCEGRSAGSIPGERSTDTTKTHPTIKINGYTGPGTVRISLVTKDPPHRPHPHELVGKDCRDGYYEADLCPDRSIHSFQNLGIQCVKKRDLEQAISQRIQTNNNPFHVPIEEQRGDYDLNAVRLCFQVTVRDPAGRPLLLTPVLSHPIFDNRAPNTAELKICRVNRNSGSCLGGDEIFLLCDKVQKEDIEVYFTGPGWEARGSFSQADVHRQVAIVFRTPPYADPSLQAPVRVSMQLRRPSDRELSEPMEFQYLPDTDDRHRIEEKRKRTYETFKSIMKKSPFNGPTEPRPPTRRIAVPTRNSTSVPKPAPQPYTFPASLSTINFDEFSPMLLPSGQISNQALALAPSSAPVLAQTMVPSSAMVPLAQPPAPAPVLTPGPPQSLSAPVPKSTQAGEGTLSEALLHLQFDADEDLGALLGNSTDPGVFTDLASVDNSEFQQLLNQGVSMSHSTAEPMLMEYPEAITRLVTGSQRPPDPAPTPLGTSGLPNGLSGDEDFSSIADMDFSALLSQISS

V2-Trap-80, Q8VCD5 = molecular target: T2, V2-Trap-80, Q8VCD5; details: chain shown with the change; HEK-293 cells, co-transfection; parent: est. 72; read off a plot
T2 chain: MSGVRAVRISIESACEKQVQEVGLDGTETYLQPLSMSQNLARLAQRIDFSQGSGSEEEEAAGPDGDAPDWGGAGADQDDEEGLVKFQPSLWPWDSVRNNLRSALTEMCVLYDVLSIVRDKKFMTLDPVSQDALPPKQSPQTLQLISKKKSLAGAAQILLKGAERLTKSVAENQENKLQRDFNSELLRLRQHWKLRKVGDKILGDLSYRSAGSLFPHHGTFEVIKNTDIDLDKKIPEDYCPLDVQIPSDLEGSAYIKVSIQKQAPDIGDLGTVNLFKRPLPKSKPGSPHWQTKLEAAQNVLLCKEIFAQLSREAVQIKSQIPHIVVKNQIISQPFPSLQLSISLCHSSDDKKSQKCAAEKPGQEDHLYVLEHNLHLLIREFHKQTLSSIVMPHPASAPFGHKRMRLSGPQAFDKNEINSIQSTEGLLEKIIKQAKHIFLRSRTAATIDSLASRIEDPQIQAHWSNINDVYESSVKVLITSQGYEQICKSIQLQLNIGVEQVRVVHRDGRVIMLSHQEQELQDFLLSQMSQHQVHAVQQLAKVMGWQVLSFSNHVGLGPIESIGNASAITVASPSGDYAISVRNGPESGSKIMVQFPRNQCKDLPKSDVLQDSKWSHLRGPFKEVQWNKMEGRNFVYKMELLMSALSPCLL

response (V2-Trap-80): 40 % wt p65
response (p65-V2): 550 % wt p65
Molecule: p65ΔTA2 fused to Venus fragment 1 (from UniProt Q04207) TA1 mut528-534

response (V2-Trap-80): 38 % wt p65
response (p65-V2): 640 % wt p65
Molecule: p65ΔTA2 fused to Venus fragment 1 (from UniProt Q04207) TA1 mut535-541

response (p65-V2, Q04207): 600 % wt p65
response (V2-Trap-80, Q8VCD5): 35 % wt p65
B1: p65ΔTA2 fused to Venus fragment 1, Q04207 D539A; F540A (protein)
chain: MDDLFPLIFPSEPAQASGPYVEIIEQPKQRGMRFRYKCEGRSAGSIPGERSTDTTKTHPTIKINGYTGPGTVRISLVTKDPPHRPHPHELVGKDCRDGYYEADLCPDRSIHSFQNLGIQCVKKRDLEQAISQRIQTNNNPFHVPIEEQRGDYDLNAVRLCFQVTVRDPAGRPLLLTPVLSHPIFDNRAPNTAELKICRVNRNSGSCLGGDEIFLLCDKVQKEDIEVYFTGPGWEARGSFSQADVHRQVAIVFRTPPYADPSLQAPVRVSMQLRRPSDRELSEPMEFQYLPDTDDRHRIEEKRKRTYETFKSIMKKSPFNGPTEPRPPTRRIAVPTRNSTSVPKPAPQPYTFPASLSTINFDEFSPMLLPSGQISNQALALAPSSAPVLAQTMVPSSAMVPLAQPPAPAPVLTPGPPQSLSAPVPKSTQAGEGTLSEALLHQLLNQGVSMSHSTAEPMLMEYPEAITRLVTGSQRPPDPAPTPLGTSGLPNGLSGDEDFSSIADMAASALLSQISS

Reference: PMC2661965
